In assay [1] the target is EGFR (wild-type, His-tagged or biotinylated) (human, UniProt P00533). As to the kind of experiment: BLI.
The next assay deals with EGFRvIII (human, UniProt P00533). Description: BLI.

Drawing on patent US20260337278 (published 2026), this text covers binding result and Kd for two molecules.

Broadly, the Kd is the concentration at which binding is half-saturated. Read a low Kd as higher affinity.

B1: SI-95X41 (antibody)
chain 1: not shown
chain 2: DILMTQSPSSMSVSLGDTVSITCHSSQDINSNIGWLQQRPGKSFKGLIYHGTNLDDEVPSRFSGSGSGADYSLTISSLESEDFADYYCVQYAQFPWTFGGGTKLEIKRTVAAPSVFIFPPSDEQLKSGTASVVCLLNNFYPREAKVQWKVDNALQSGNSQESVTEQDSKDSTYSLSSTLTLSKADYEKHKVYACEVTHQGLSSPVTKSFNRGEC
As for B1, the binding result in assay [1] was “no binding”. In the assay with EGFRvIII, this molecule yielded a Kd of 15.9 nM.

B2: SI-95X55 (antibody)
chain 1: not shown
chain 2: DIVMTQSPSSVSLSLGDRVTITCHSSQDINSNIGWLQQKPGKAFKGLIYHGTNLDDGVPSRFSGSGSGADYTLTISSLQAEDFATYYCVQYAQFPWTFGPGTKLEIKRTVAAPSVFIFPPSDEQLKSGTASVVCLLNNFYPREAKVQWKVDNALQSGNSQESVTEQDSKDSTYSLSSTLTLSKADYEKHKVYACEVTHQGLSSPVTKSFNRGEC
In the case of B2, the binding result in assay [1] is “no binding”. In the assay with EGFRvIII, this molecule showed a Kd of 7.67 nM.
